Measured values reported in patent publication US11390894B2, “Biological processes for the production of aryl sulfates” (CysBio ApS, priority 2014, dated 2022).

B1: FjTAL: tyrosine ammonia-lyase from Flavobacterium johnsoniae (protein, listed as Flavobacterium johnsoniae)
chain: MNTINEYLSLEEFEAIIFGNQKVTISDVVVNRVNESFNFLKEFSGNKVIYGVNTGFGPMAQYRIKESDQIQLQYNLIRSHSSGTGKPLSPVCAKAAILARLNTLSLGNSGVHPSVINLMSELINKDITPLIFEHGGVGASGDLVQLSHLALVLIGEGEVFYKGERRPTPEVFEIEGLKPIQVEIREGLALINGTSVMTGIGVVNVYHAKKLLDWSLKSSCAINELVQAYDDHFSAELNQTKRHKGQQEIALKMRQNLSDSTLIRKREDHLYSGENTEEIFKEKVQEYYSLRCVPQILGPVLETINNVASILEDEFNSANDNPIIDVKNQHVYHGGNFHGDYISLEMDKLKIVITKLTMLAERQLNYLLNSKINELLPPFVNLGTLGFNFGMQGVQFTATSTTAESQMLSNPMYVHSIPNNNDNQDIVSMGTNSAVITSKVIENAFEVLAIEMITIVQAIDYLGQKDKISSVSKKWYDEIRNIIPTFKEDQVMYPFVQKVKDHLINN
B2: RmXAL: enzyme from Rhodotorula mucilaginosa/Rhodotorula rubra with tyrosine ammonia lyase activity (protein, listed as Rhodotorula mucilaginosa)
chain: MAPSVDSIATSVANSLSNGLHAAAAANGGDVHKKTAGAGSLLPTTETTQLDIVERILADAGATDQIKLDGYTLTLGDVVGAARRGRSVKVADSPHIREKIDASVEFLRTQLDNSVYGVTTGFGGSADTRTEDAISLQKALLEHQLCGVLPTSMDGFALGRGLENSLPLEVVRGAMTIRVNSLTRGHSAVRIVVLEALTNFLNHGITPIVPLRGTISASGDLSPLSYIAASITGHPDSKVHVDGKIMSAQEAIALKGLQPVVLGPKEGLGLVNGTAVSASMATLALTDAHVLSLLAQALTALTVEAMVGHAGSFHPFLHDVTRPHPTQIEVARNIRTLLEGSKYAVHHETEVKVKDDEGILRQDRYPLRCSPQWLGPLVSDMIHAHAVLSLEAGQSTTDNPLIDLENKMTHHGGAFMASSVGNTMEKTRLAVALMGKVSFTQLTEMLNAGMNRALPSCLAAEDPSLSYHCKGLDIAAAAYTSELGHLANPVSTHVQPAEMGNQAINSLALISARRTAEANDVLSLLLATHLYCVLQAVDLRAMEFEHTKAFEPMVTELLKQHFGALATAEVEDKVRKSIYKRLQQNNSYDLEQRWHDTFSVATGAVVEALAGQEVSLASLNAWKVACAEKAIALTRSVRDSFWAAPSSSSPALKYLSPRTRVLYSFVREEVGVKARRGDVYLGKQEVTIGTNVSRIYEAIKSGCIAPVLVKMMA
B3: RsTAL: tyrosine ammonia-lyase from Rhodobacter sphaeroides (protein)
chain: MLAMSPPKPAVELDRHIDLDEAHSVASGGARIVLAPPARDRCRASEARLGAVIREARHVYGLTTGFGPLANRLVSGENVRTLQANLVHHLASGVGPVLDWTTARAMVLARLVAIAQGASGASEGTIARLIDLLNSELAPAVPMRGTVGASGDLTPLAHMVLCLQGRGDFLDRDGTRLDGAEGLRRGRLQPLDLSHRDALALVNGTSAMTGIALVNAHACRHLGNWAVALTALLAECLGGRTEAWAAALSDLRPHPGQKDAAARLRARVDGSARVVRHVIAERRLGASDIGTEPEAGQDAYSLRCAPQVLGAGFDTLAWHDRVLTIELNAVTDNPVFPPDGSVPALHGGNFMGQHVALTSDALATAVTVLAGLAERQIARLTDERLNRGLPPFLHRGPAGLNSGFMGAQVTATALLAEMRATGPASIHSISTNAANQDVVSLGTIAARLCREKIDRWAEILAILALCLAQAAELRCGSGLDGVSPAGKKLVQALREQFPPLETDRPLGQEIAALATHLLQQSPV
modifications: Rhodobacter sphaeroides
B4: SULT1A1 Homo sapiens, RmXAL: SULT1A1 from Homo sapiens co-expressed with tyrosine ammonia lyase RmXAL in E. coli (protein, UniProt P50225 1-295, looked up)
Sulfotransferase 1A1: MELIQDTSRPPLEYVKGVPLIKYFAEALGPLQSFQARPDDLLISTYPKSGTTWVSQILDMIYQGGDLEKCHRAPIFMRVPFLEFKAPGIPSGMETLKDTPAPRLLKTHLPLALLPQTLLDQKVKVVYVARNAKDVAVSYYHFYHMAKVHPEPGTWDSFLEKFMVGEVSYGSWYQHVQEWWELSRTHPVLYLFYEDMKENPKREIQKILEFVGRSLPEETVDFVVQHTSFKEMKKNPMTNYTTVPQEFMDHSISPFMRKGMAGDWKTTFTVAQNERFDADYAEKMAGCSLSFRSEL
modifications: co-expressed with RmXAL
notes: SULT1A1 from Homo sapiens co-expressed with tyrosine ammonia lyase RmXAL in E. coli
B5: RcTAL: tyrosine ammonia-lyase from Rhodobacter capsulatus (protein, listed as Rhodobacter capsulatus)
chain: MLDATIGRKRMTLQSQTAKDCLALDGALTLVQCEAIATHRSRISVTPALRERCARAHARLEHAIAEQRHIYGITTGFGPLANRLIGADQGAELQQNLIYHLATGVGPKLSWAEARALMLARLNSILQGASGASPETIDRIVAVLNAGFAPEVPAQGTVGASGDLTPLAHMVLALQGRGRMIDPSGRVQEAGAVMDRLCGGPLTLAARDGLALVNGTSAMTAIAALTGVEAARAIDAALRHSAVLMEVLSGHAEAWHPAFAELRPHPGQLRATERLAQALDGAGRVCRTLTAARRLTAADLRPEDHPAQDAYSLRVVPQLVGAVWDTLDWHDRVVTCELNSVTDNPIFPEGCAVPALHGGNFMGVHVALASDALNAALVTLAGLVERQIARLTDEKLNKGLPAFLHGGQAGLQSGFMGAQVTATALLAEMRANATPVSVQSLSTNGANQDVVSMGTIAARRARAQLLPLSQIQAILALALAQAMDLLDDPEGQAGWSLTARDLRDRIRAVSPGLRADRPLAGDIEAVAQGLRHPSAADPPA

Tests used:
[1] = tested on: tyrosine; test: In vivo supply of p-coumaric acid by tyrosine ammonia-lyases co-expressed with SULT1A1 rat in E. coli; assay type: cell-based, Escherichia coli; details: M9 0.2% glucose, 2 mM tyrosine, 1 mM IPTG, overnight 37° C., supernatant
Description: (§1) The concentration of p-courmaric acid (pHCA) and zosteric acid in the supernatant was quantified by high performance (HPLC) and compared to chemical standards. HPLC was done on a Thermo setup using a HS-F5 column and mobile phases: 5 mM ammonium formate pH 4.0 (A) and acetonitrile (B) at 1.5 mL min-1, using a gradient elution starting at 5% B. From 0.5 min after injection to 7 min, the fraction of B increased linearly from 5% to 60%, and between 9.5 min and 9.6 the fraction of B decreased back to 5%, and remaining there until 12 min. pHCA and zosteric acid were quantified by measuring absorbance at 277 nm.
The genes encoding the tyrosine ammonia-lyases RcTAL (from Rhodobacter capsulatus; SEQ ID NO: 48), RsTAL (from Rhodobacter sphaeroides; SEQ ID NO: 17) and FjTAL (from Flavobacterium johnsoniae; SEQ ID NO: 14) were cloned into expression vectors as follows. Genes (SEQ ID NO: 49, 50, and 51, respectively) were optimized for E. coli and synthesized by GeneArt, amplified by PCR using the oligonucleotides shown in the table below, and cloned into pCDFDuet-1 (Novagen): The plasmid was digested with NdeI and BgIII and gel purified. The genes were inserted by isothermal assembly using Gibson Assembly Master Mix (New England Biolabs), and transformed into chemically competent DH5a (laboratory strain) or NEB5α (New England Biolabs), selecting for resistance to 50 μg mL^−1 spectinomycin in LB medium. Resulting plasmids pCBJ215 (RsTAL), pCBJ228 (FjTAL) and pCBJ297 (RcTAL) (FIGS. 6 to 8, respectively) were co-transformed by electroporation into the E. coli expression strain BL21(DE3) (Invitrogen/Life Technologies) together with a pETDuet-1-based plasmid expressing SULT1A1 from rat (Example 1). Transformation cultures were plated on LB containing 50 μg mL^−1 spectinomycin and 100 μg mL^−1 ampicillin. A control strain carrying pCDFDuet-1 was also made.
Strains harboring recombinant plasmids were pre-cultured in 2×YT liquid medium with 100 μg mL^−1 ampicillin and 50 μg mL^−1 spectinomycin and incubated at 37° C. and 250 rpm overnight. The following day, each pre-culture was transferred into 5 ml of M9 minimal medium with 0.2% glucose, 2 mM tyrosine and 1 mM IPTG for induction of expression. Cultures were placed in an incubator at 37° C. with shaking at 250 rpm overnight. The supernatants were then collected by centrifugation twice and applied to HPLC analysis as described in example 1, and the titers of p-coumaric acid (pHCA) and zosteric acid (ZA) were quantified using chemical standards and are presented in the table below.

[2] = tested on: tyrosine; test: pHCA and zosteric acid in culture media of E. coli expressing an aryl sulfotransferase in combination with a tyrosine ammonia lyase; assay type: cell-based, Escherichia coli; details: M9 glucose, 0.1 mM IPTG, no substrate added
Description: as §1
The enzyme RmXAL from Rhodotorula mucilaginosa/Rhodotorula rubra (SEQ ID NO: 20) has tyrosine ammonia lyase activity, thus catalyzing the non-oxidative deamination of the amino acid tyrosine, releasing p-coumaric acid (pHCA) and ammonia. The gene encoding RmXAL was codon optimized using standard algorithms for expression in E. coli available by GeneArt (Life Technologies) and amplified by PCR using the primers shown in table 5 and inserted into the pCDFDuet-1 vector (Novagen/Life Technologies), which had been digested by the restriction enzymes NdeI and BgIII, using Gibson reaction (New England Biolabs). FIG. 4 provides an image of the plasmid expressing RmXAL.
The resulting plasmid was co-transformed into E. coli BL21(DE3)pLysS cells (Life Technologies) alone or together with the plasmid expressing SULT1A1 from Homo sapiens (example 1). The resulting strains was grown in M9 media with glucose as a carbon source, with 0.1 mM IPTG for induction of gene expression. Samples were taken as described previously (example 1) for analysis of product formation. […] RmXAL allowed the production of pHCA without addition of any substrate, thus providing a heterologous pathway from the cells normal metabolism to a heterologous product. The additional expression of an aryl sulfotransferase, exemplified by SULT1A1 from Homo sapiens, allowed the in vivo conversion of pHCA to zosteric acid. Thus, an aryl sulfotransferase can act upon a compound produced in vivo and the cells can release the resulting sulfated product to the medium.

Molecule | μM ZA [1] [µM] | μM pHCA [1] [μM] | Zosteric acid formed [2] | pHCA [2] [mM]
B1 | 16 | 398 |  | 
B2 |  |  | Not detectable | 0.04
B3 | <1 | 78 |  | 
B4 |  |  | 0.01 mM | 0.02
B5 | <1 | 20 |  | 
